# In the DeepSol protein solubility set:
# Test: soluble on expression in E. coli; label from the status in PepcDB or PDB records
row,Sequence,soluble on expression in E. coli
1,MGSDKIHHHHHHMNTKNYFIIGGTGGIGKAMVEQLLQTATNEHASTGMNNDTGIRVFATYHKSIPDFEADNLYWIAMDICDEQSIKHAVDTIKQQTTHIDWVINCAGLLHTKAQQPEKALQQLESEFFLQNMQVNALASLLIAKHIKPLLAKAERSADKPAIFATISARVGSISDNQLGGWYSYRMSKAALNMGMKNLSIEWSRSLKDVCVVVMQPGTVNTQLSAPFQGNVADGQLFSPTYSAECLLEVLSKMSAAQSGSFVDWAGESIPW,not soluble
2,MFLKILPRIRRPTRSYAAVLAARHEGFAKVMQSDLMAFENFLGQDAVKKDDITNHTTDWTGQFKGPGSVVLYPKSTEEVSAILAYCSKNKLAVVPQGGNTGLVGGSIPVHDEVVISMNKINKQFSFDDTMGILKCDSGFILEDLDNKLAKLGYMMPFDLGAKGSCQIGGNIATCAGGIRLIRYGSLHAHLLGLTVVLPDEHGTVLHLGSSIRKDNTTLHTPHLFLGSEGQLGVITSVTMTAVPKPKSVQSAMLGIESFKKCCEVLKLAKSSLTEILSSFELLDDATMECLKTNLGLHPVLNAPTPFSILVETSGSNEDHDMEKMSAFLDECLSKNLIIDGVLAGSSAEATKMWQLRESAPLAVTRDGYVYKHDVSLPLENYYELTNVMKERCGSLAKRIVTYGHLGDGNTHLNITSEKHNEELEKLLYPFLYEWVVDHGGSISAEHGIGQLKLPYSTFGKDPEERLLTKKLKNIFDPNGILNPYKTI,not soluble
3,SSEASRDDYKIQSFDAQTQQLLKTALKDPGAVDLERVANVIVDHSLQDCVFSKEAGRMCYAIIQAESKQAGQSVFRRGLLNRLQKEYDAREQLRACSLQGWVCYVTFICNIFDYLRVNNMPMMALVNPVYDCLFQLAQPESLSREEEVDCLVLQLHRVGEQLEKMNGQRMDELFILIRDGFLLPTDLSSLARLLLLEMIEFRAAGWKTTPAAHKYYYSEVSD,soluble
4,MSLQAVTLSVLVVEDTDCERFYITHLLRQFGWLVESRSNGKAALDYLQQNEVHILVSDWRMPEMSGIELCQIVKNNHLPPFVILLTANNQTADIVLGIEAGADDFICKPFLPELLKVRMLAAMRIVQLQHNLSRNEGHHHHHH,not soluble
5,MSLTLISLQTFAAAWEEKLYNPMPDAEDVVLPMPCDGAMVFRKVYIPLAGPLDDYPVNIGGDNAEYGYVEQTHPAFIAGSFTTEKNAKSRYYLLAKYEMTVLQYSALTQAECPAPSNKQRLPVVSLSWMQAMEAADKYNIWLRENAADKLPKEDGVAGFLRLPTEVEWEFAARGGLNVSTAEFRDLRYPMPEGVNAYEWFAGTQSANGQLQLSGLLKPNPLGLHDMLGNVDEMMFEPFRLNKLDRQHGQAGGYVVRGGDFRTAQGELRSSLRKERNYYDAKAAATSKTTGVRLALASSTLTSRERVSSIETSWKEGHHHHHH,not soluble
6,MSIMLPINNNFSLSQNSFYNTISGTYADYFSAWDKWEKQALPGENRNEAVSLLKECLINQFSELQLNRLNLSSLPDNLPPQITVLEITQNALISLPELPASLEYLDACDNRLSTLPELPASLKHLDVDNNQLTMLPELPALLEYINADNNQLTMLPELPTSLEVLSVRNNQLTFLPELPESLEALDVSTNLLESLPAVPVRNHHSEETEIFFRCRENRITHIPENILSLDPTCTIILEDNPLSSRIRESLSQQTAQPDYHGPRIYFSMSDGQQNTLHRPLADAVTAWFPENKQSDVSQIWHAFEHEEHANTFSAFLDRLSDTVSARNTSGFREQVAAWLEKLSASAELRQQSFAVAADATESCEDRVALTWNNLRKTLLVHQASEGLFDNDTGALLSLGREMFRLEILEDIARDKVRTLHFVDEIEVYLAFQTMLAEKLQLSTAVKEMRFYGVSGVTANDLRTAEAMVRSREENEFTDWFSLWGPWHAVLKRTEADRWALAEEQKYEMLENEYPQRVADRLKASGLSGDADAEREAGAQVMRETEQQIYRQLTDEVLALRLPENGSQLHHS,soluble
7,MGSDKIHHHHHHMTQTSSLVINSFREITVNHPLWSHEFLIRCRAGNLFLPDVQILAVQMYKFSKEFNRILASILSCCEDESSQLVILENLFDEMGQGDITQSHPELFRQFTRALGIDDETLAALPTAPETRALIETYLQIPHKYGYLAALGAVCYASEGIVSSLYTQLYKGIIGATPLPKEALIFFEVHIDVDDSHAAKLAAVIEPRIPMNEEDIKVKLAIVEAMDARVQFFNGIQRQISKYSLYPDSWVHFDALL,not soluble
